How the values were obtained:
[1] = target: VEGF (vascular endothelial growth factor) (UniProt P15692-4 27-191, limits assumed); test: cell-based or functional assay
VEGF165 = target: T1, VEGF165 (UniProt P15692-4 27-191); test: in vitro binding; method not stated
T1 construct: P15692 is the human VEGFA entry; VEGF165 is one isoform of that entry; also called VEGFA isoform 165
T1 sequence (P15692 other isoform, or with tags, fused parts or gaps limits assumed): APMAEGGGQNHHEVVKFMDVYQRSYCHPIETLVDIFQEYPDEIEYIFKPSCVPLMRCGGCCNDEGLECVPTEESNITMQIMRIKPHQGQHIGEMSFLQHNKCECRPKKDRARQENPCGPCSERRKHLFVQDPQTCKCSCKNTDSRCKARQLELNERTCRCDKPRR

Sequence of VEGF (vascular endothelial growth factor) (P15692 other isoform, or with tags, fused parts or gaps limits assumed): as above

B1: scFv3, anti-VEGF-scFv comprising SEQ ID No.: 3 (scFv)
scFv: EIVMTQSPSTLSASVGDRVIITCQASEIIHSWLAWYQQKPGKAPKLLIYLASTLASGVPSRFSGSGSGAEFTLTISSLQPDDFATYYCQNVYLASTNGANFGQGTKLTVLGGGGGSGGGGSGGGGSGGGGSEVQLVESGGGLVQPGGSLRLSCTASGFSLTDYYYMTWVRQAPGKGLEWVGFIDPDDDPYYATWAKGRFTISRDNSKNTLYLQMNSLRAEDTAVYYCAGGDHNSGWGLDIWGQGTLVTVSS
notes: About 26.3 kDa
- VEGF induced HUVEC proliferation, IC50 [1]: 0.19 nM
- Kd (VEGF165): 0.0284 nM
